Test results reported in article PMC3744643.

Key:
Conditions in all cases: 10 mM Tris-HCl pH 7.5, 50 mM NaCl, 1 mM MgCl2, 0.5 mM EDTA, 0.5 mM DTT, 0.05 mg/ml poly(dI-dC), room temperature, 30 min; footprinting: same buffer, then …
[1] = tested on: T1, His-AphA (Vibrio parahaemolyticus RIMD 2210633), ORF:4cf93ac0; assay: EMSA
T1 sequence: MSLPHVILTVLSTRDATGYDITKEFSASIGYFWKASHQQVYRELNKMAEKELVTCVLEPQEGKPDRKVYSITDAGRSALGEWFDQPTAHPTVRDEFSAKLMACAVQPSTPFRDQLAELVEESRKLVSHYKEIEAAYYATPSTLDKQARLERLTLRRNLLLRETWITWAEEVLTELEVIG

[2] = target: T2, His-OpaR (Vibrio parahaemolyticus RIMD 2210633) (UniProt Q79YV4); assay: EMSA
T2 sequence: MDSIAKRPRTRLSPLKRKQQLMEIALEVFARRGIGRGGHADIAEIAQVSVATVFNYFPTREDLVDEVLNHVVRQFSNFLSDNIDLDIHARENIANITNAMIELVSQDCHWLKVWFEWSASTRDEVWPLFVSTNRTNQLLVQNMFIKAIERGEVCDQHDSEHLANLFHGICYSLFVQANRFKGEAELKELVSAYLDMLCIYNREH

[3] = tested on: T1, His-AphA (Vibrio parahaemolyticus RIMD 2210633), ORF:4cf93ac0; assay: DNase I footprinting
[4] = target: T2, His-OpaR (Vibrio parahaemolyticus RIMD 2210633); assay: DNase I footprinting

Row | Sequence | binding [1] | binding [2] | binding [3] | binding [4]
1 | TTGTGGAAACTCGTTATGGTCAATACCAATTTCATGAAAAACCTCGCCAAAGACCTGCTAAATATTTATATATCGATTTTTATAATTAGATTTGAAGCTTTAATTATTAACATTAAGATTAATAGAGTTCTTATAGCTGTTATAAAAACTATTGACGGCATAATGAATCATTTTTTTATCAAAGCAATCATGAATTGTTGAACAATTTTAAATATCCAACCAGGTTCAAATTTTTGACACTCAAACTTTCACCCGTCAA (double strand) [VPA1044 promoter probe (EMSA and footprinting)] | no binding | binds | no binding | binds
2 | GAGTTGCTTCATAATAACTATTATTAGTTATAAATATCGCTTAATTTAAATCTAATTTAAAGATATAAAGGAGCGTATTTAAAATGAAGTTTTTGATACATCAATCATTAATTATCATTATTCAGATAATTTAATTAATACGAAATATGTCAATTAATAATGCTCTAGGAGATTAGCATGCAGTCTAATACGTATCTTAAATACGCAGATATTAAAGGTGAAGCGACAGCGGAAC (double strand) [VPA1027 (hcp2) promoter footprinting probe] |  |  | no binding | binds
3 | AGCGGAGTCTTGTTTATTAACGTTTTTAGCGGGTTCAATTGCATTTTCTCTTTTTTGAGTCTTTACAATTTTTGTTTTATCTCCGCTATCGCTGCTATTTATAGATTTGTCTTTATTTTTTTCTTCCATCACAAGGACTCCATATAAATGATGGGGTTAATATATATATTCCTGCTAAATGAAAAATACTTCGGTTAGATTTTCTCG (double strand) [VPA1043 promoter probe (EMSA and footprinting)] | no binding | binds | no binding | binds
